Like-named read-outs stand apart in the source and are kept apart here.
Columns and labels:
[1] = biological target: T1, chemokine (C-X-C motif) receptor 1 (CXCR1) (human) (UniProt P25024); test: cell-based or functional assay
T1 sequence (looked up): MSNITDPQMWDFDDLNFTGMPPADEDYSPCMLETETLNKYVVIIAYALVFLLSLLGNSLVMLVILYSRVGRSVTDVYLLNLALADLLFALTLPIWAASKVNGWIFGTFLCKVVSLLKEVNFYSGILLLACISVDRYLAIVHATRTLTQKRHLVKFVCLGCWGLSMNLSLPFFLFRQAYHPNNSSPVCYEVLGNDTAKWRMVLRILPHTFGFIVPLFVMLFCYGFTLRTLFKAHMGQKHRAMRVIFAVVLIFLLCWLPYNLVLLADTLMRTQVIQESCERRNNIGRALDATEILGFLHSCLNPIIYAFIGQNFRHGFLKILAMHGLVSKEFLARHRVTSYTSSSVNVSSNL

[2] = biological target: chemokine (C-X-C motif) receptor 3 (CXCR3) (human) (UniProt P49682); test: cell-based or functional assay
[3] = biological target: chemokine (C-C motif) receptor 3 (CCR3) (human) (UniProt P51677); test: blood passed through chemokine-coupled column; flow cytometry before and after
[4] = biological target: chemokine (C-C motif) receptor 3 (CCR3) (human) (UniProt P51677); test: blood passed through magnetic column with RANTES-coupled MACS beads; flow cytometry before and after
[5] = biological target: chemokine (C-X-C motif) receptor 4 (CXCR4) (human) (UniProt P61073); test: cell-based or functional assay
[6] = biological target: T2, chemokine (C-C motif) receptor 4 (CCR4) (human) (UniProt P51679); test: cell-based or functional assay
T2 sequence (looked up): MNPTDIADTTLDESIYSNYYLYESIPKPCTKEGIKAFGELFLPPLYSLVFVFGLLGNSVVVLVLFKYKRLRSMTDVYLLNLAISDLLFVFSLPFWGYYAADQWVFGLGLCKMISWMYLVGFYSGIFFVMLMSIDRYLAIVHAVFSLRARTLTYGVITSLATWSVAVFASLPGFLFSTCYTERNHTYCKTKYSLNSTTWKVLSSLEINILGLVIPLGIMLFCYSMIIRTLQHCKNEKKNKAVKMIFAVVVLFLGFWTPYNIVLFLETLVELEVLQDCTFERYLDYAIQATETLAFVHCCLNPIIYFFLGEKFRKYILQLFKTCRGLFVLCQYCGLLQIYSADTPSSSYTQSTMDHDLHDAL

[7] = biological target: T1, chemokine (C-X-C motif) receptor 1 (CXCR1) (human); test: cell-based or functional assay; remark: listed apart in the source
[8] = biological target: T3, chemokine (C-C motif) receptor 6 (CCR6) (human) (UniProt P51684); test: cell-based or functional assay
T3 sequence (looked up): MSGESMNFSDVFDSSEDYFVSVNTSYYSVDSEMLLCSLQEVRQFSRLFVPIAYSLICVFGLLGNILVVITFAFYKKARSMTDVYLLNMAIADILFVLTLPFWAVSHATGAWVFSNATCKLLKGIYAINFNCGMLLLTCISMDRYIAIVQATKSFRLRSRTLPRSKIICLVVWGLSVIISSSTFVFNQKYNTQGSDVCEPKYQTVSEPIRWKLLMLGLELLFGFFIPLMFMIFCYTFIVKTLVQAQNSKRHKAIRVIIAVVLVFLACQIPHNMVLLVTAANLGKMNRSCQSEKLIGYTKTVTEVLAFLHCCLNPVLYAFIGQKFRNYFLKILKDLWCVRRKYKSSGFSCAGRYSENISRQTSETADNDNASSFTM

[9] = biological target: chemokine (C-C motif) receptor 7 (CCR7) (human) (UniProt P32248); test: cell-based or functional assay
[10] = biological target: chemokine (C-C motif) receptor 9 (CCR9) (human) (UniProt P51686); test: cell-based or functional assay
[11] = biological target: chemokine (C-C motif) receptor 9 (CCR9) (human) (UniProt P51686); test: cell-based or functional assay; remark: listed apart in the source
[12] = biological target: chemokine (C-C motif) receptor 3 (CCR3) (human) (UniProt P51677); test: cell-based or functional assay

Chain of chemokine (C-C motif) receptor 3 (CCR3) (human) (P51677 whole entry): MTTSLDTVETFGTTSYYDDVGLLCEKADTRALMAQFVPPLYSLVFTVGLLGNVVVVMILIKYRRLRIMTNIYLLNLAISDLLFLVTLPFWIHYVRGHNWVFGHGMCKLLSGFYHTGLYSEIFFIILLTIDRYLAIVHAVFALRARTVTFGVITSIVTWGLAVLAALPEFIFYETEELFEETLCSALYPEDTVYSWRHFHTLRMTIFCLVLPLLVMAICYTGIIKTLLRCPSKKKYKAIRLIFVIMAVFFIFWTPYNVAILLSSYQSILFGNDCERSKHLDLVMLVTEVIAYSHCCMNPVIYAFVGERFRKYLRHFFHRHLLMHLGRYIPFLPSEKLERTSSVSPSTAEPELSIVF
Chain of chemokine (C-C motif) receptor 9 (CCR9) (human) (P51686 whole entry): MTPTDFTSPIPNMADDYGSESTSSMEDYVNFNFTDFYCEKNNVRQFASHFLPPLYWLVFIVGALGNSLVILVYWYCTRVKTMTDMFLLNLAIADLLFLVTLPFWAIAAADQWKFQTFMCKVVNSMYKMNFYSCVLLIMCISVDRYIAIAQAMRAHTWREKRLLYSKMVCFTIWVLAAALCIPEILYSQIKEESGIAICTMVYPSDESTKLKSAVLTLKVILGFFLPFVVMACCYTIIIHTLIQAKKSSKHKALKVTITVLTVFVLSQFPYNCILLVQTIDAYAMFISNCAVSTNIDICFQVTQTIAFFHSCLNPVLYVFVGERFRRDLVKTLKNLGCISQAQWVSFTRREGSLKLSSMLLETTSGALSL
Chain of chemokine (C-X-C motif) receptor 3 (CXCR3) (human) (P49682 whole entry): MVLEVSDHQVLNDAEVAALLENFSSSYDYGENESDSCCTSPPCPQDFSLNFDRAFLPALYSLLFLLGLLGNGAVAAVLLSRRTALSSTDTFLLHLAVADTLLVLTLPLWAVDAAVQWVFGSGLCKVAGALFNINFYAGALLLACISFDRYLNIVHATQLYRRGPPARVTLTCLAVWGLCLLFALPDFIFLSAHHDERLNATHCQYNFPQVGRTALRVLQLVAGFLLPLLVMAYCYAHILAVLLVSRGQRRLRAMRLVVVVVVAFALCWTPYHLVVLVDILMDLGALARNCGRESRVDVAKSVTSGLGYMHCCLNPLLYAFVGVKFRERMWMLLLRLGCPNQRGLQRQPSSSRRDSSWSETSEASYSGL
Chain of recombinant native IL-8 (P10145 28-99 limits assumed): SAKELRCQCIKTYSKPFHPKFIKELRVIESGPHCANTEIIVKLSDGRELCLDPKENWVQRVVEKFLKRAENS
Chain of chemokine (C-C motif) receptor 7 (CCR7) (human) (P32248 25-378): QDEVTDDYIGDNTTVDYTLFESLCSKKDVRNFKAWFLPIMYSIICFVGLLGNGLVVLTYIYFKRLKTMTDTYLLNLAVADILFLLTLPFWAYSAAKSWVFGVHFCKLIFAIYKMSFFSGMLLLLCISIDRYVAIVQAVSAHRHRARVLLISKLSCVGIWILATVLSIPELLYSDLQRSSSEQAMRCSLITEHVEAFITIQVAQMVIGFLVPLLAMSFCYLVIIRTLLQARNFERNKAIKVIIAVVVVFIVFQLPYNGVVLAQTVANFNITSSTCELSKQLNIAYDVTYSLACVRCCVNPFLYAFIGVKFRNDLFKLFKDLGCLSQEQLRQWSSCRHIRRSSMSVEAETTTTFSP
Chain of UniProt P10145 (P10145 other isoform, or with tags, fused parts or gaps limits assumed): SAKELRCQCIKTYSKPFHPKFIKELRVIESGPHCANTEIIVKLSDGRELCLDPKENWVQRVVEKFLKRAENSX
Chain of UniProt Q92583 (Q92583 other isoform, or with tags, fused parts or gaps limits assumed): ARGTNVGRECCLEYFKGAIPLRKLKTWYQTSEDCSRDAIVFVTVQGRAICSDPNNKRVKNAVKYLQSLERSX
Chain of recombinant native MIP-3a (P78556 27-96 limits assumed): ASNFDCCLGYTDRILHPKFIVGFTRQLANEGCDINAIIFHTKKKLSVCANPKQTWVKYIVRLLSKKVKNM
Chain of chemokine (C-X-C motif) receptor 4 (CXCR4) (human) (P61073 whole entry): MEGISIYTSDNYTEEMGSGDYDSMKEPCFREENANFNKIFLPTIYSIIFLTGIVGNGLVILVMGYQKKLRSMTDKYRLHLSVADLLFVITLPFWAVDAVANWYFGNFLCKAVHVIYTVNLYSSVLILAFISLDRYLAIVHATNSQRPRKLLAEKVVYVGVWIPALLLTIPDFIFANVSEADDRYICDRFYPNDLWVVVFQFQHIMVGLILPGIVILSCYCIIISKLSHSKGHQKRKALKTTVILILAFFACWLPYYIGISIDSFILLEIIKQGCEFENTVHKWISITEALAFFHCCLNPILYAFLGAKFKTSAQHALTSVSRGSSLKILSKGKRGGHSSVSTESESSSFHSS
Chain of recombinant native TARC (Q92583 24-94 limits assumed): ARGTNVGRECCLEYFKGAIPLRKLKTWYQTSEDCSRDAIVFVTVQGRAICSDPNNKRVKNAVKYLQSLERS

biotinIL-8 (6-78): IL-8 (6-78) derivatised at Lys(78) with PEG-Biotin (from UniProt P10145 28-99) (ligand)
EC50 (agonist activity, Aequorin assay) [1]: 6.1 nM

biotinIP-10 (CXCL10): IP-10 derivatised with Biotin at an additional C-terminal Lysine after a PEG spacer (from UniProt P02778 22-98) (ligand)
EC50 (agonist activity, Aequorin assay) [2]: 8.7 nM

biotinRANTES (CCL5): RANTES derivatised at Lys(67) with Biotin (from UniProt P13501 24-91) (ligand)
percent reduction of chemokine receptor-expressing cells (CCR1, 3 or 5, not told apart) [3]: 20%
percent reduction of chemokine receptor-expressing cells (CCR1, 3 or 5, not told apart) [4]: 20%

biotinSDF-1a (CXCL12): SDF-1a derivatised at Lys(64) with Biotin (from UniProt P48061 22-67) (ligand)
EC50 (agonist activity, Aequorin assay) [5]: 17.3 nM

biotinTARC (CCL17): TARC derivatised at Lys(72) with PEG-Biotin (from UniProt Q92583 24-94) (ligand)
EC50 (agonist activity, Aequorin assay) [6]: 3.1 nM

recombinant native IL-8 (from UniProt P10145 28-99) (ligand)
EC50 (agonist activity, Aequorin assay) [1]: 4.2 nM
EC50 (agonist activity, Aequorin assay) [7]: 4.1 nM

recombinant native IP-10 (from UniProt P02778 22-98) (ligand)
EC50 (agonist activity, Aequorin assay) [2]: 4.4 nM

recombinant native MIP-3a (from UniProt P78556 27-96) (ligand)
EC50 (agonist activity, Aequorin assay) [8]: 1 nM

recombinant native MIP-3b (from UniProt Q99731 22-98) (ligand)
EC50 (agonist activity, Aequorin assay) [9]: 1.6 nM

recombinant native TARC (from UniProt Q92583 24-94) (ligand)
EC50 (agonist activity, Aequorin assay) [6]: 2.6 nM

recombinant native TECK (from UniProt O15444 24-150) (ligand)
EC50 (agonist activity, Aequorin assay) [10]: 67.9 nM
EC50 (agonist activity, Aequorin assay) [11]: 67.9 nM

recombinant native eotaxin (from UniProt P51671 24-97) (ligand)
EC50 (agonist, Aequorin assay) [12]: 10.7 nM

From patent US20140175018A1
